# Test results reported in paper PMC11582362 (Nature Communications, 2023).
# B1: ADAR1-dsRBD3 dsRBD3-short construct (residues 716-797) (domain or fragment, human, UniProt P55265 716-797, looked up)
# chain: IGELVRYLNTNPVGGLLEYARSHGFAAEFKLVDQSGPPHEPKFVYQAKVGGRWFPAVCAHSKKQGKQEAADAALRVLIGENE
# notes: human ADAR1, folded part of the third dsRBD, residues 716-797 (Uniprot entry P55265); Modified pET28a with TEV site; also called dsRBD-short; ADAR1-dsRBD3 (crystal structures); source: E. coli BL21(DE3) Codon-plus (RIL), purified (Ni-NTA, TEV cleavage, SEC); not shown: His6, N-terminal, cleaved
# B2: ADAR1-dsRBD3 dsRBD3-long construct (residues 688-817) (domain or fragment, human, UniProt P55265 688-817, looked up)
# chain: MASDNQPEGMISESLDNLESMMPNKVRKIGELVRYLNTNPVGGLLEYARSHGFAAEFKLVDQSGPPHEPKFVYQAKVGGRWFPAVCAHSKKQGKQEAADAALRVLIGENEKAERMGFTEVTPVTGASLRR
# notes: human ADAR1, third dsRBD with flanking regions, residues 688-817 (Uniprot entry P55265); Modified pET28a with TEV site; source: E. coli BL21(DE3) Codon-plus (RIL), purified (Ni-NTA, TEV cleavage, SEC); not shown: His6, N-terminal, cleaved
# B3: ADAR1-dsRBD3 dsRBD3-mid construct (residues 708-801), tag cleaved (domain or fragment, human, UniProt P55265 708-801, looked up)
# chain: MMPNKVRKIGELVRYLNTNPVGGLLEYARSHGFAAEFKLVDQSGPPHEPKFVYQAKVGGRWFPAVCAHSKKQGKQEAADAALRVLIGENEKAER
# notes: human ADAR1, third dsRBD, residues 708-801 (Uniprot entry P55265); Modified pET28a with TEV site; also called dsRBD-mid; source: E. coli BL21(DE3) Codon-plus (RIL), purified (Ni-NTA, TEV cleavage, SEC); not shown: His6, N-terminal, cleaved
# B4: ADAR1-dsRBD3 (residues 708-801) with uncleavable His6-tag, wild type (domain or fragment, human, UniProt P55265 708-801, looked up)
# chain: B3 chain
# notes: human ADAR1, third dsRBD, residues 708-801 (Uniprot entry P55265); pET28a between NdeI and XhoI; also called wild-type ADAR1-dsRBD3; source: E. coli BL21(DE3) Codon-plus (RIL), purified (Ni-NTA, SEC); not shown: His6, N-terminal, kept
# What was measured:
# [1] = biological target: the molecule itself; assay: SEC-SAXS; BioSEC-3 column, 15 °C, 0.3 mL/min, 20 mM Na-HEPES pH 7.3, 55 mM KOAc, 10 mM NaCl, 1 mM TCEP; purification tags cleaved off; SWING beamline, SOLEIL
# [2] = biological target: the molecule itself; assay: SEC-MALS; SEC-MALLS, BioSEC-3 column, 25 °C, 0.4 mL/min, 20 mM Na-phosphate pH 7.0, 100 mM NaCl, 2 mM 2-mercaptoethanol; His6-tag kept
protein,measurement,setting,value
B1,stoichiometry N,[1],2
B2,stoichiometry N,[1],2
B3,stoichiometry N,[1],2
B4,stoichiometry N,[2],2
